Binding data for two sequences are collected here from publication PMC12607152.

The target in series [1] is T1, CcpA (catabolite control protein A) (Staphylococcus aureus (XN108?)) (UniProt P99175).
T1 sequence: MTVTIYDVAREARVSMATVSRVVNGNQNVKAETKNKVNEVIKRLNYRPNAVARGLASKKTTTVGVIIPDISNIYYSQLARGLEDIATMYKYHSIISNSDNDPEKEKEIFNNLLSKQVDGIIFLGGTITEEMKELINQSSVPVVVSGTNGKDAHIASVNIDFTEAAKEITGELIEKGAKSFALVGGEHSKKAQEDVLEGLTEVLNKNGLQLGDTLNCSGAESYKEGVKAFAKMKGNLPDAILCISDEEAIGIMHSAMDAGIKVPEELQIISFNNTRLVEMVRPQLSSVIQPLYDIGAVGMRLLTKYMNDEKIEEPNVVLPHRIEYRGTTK
The series can be described thus: EMSA. To be noted: not given in the material; EMSA as previously described (ref 22).

In series [2] the target is T1, CcpA (catabolite control protein A) (Staphylococcus aureus (XN108?)). The series can be described thus: competition. Conditions: not given in the material; EMSA as previously described (ref 22). A general note: Mobility shift assays separate free from complexed probe on a gel.

On to “CAGTCCTCAACTCTTTTAATGTTTTCATGTTGTCACCGCCTTTCGTAAACCTAATATAATACGAAATTTTCGTATTGTCAACATTAAATACGTTTTTTTCGTAAAAAACTTTACTATGATATGAAAATTTCGTATAATAAGAAAAAAGGAGGTAAGTAAT (double strand) [PcI probe (160-bp region upstream of cI)]”, for which, in series [1], the binding entry is “binds”. Take “CAGTCCTCAACTCTTTTAATGTTTTCATGTTGTCACCGCCTTTCGTAAACCTAATATAATACGAAATTTTCGTATTGTCAACATTAAATACGTTTTTTTCGTAAAAAACTTTACTATGATATGAAAATTTCGTATAATAAGAAAAAAGGAGGTAAGTAAT (double strand) [PcI unlabeled competitor]”: the binding result in series [2] is on record as “binds”.
